# Assay results as given in patent US20240252617A1.
# Target: monomeric SARS-CoV-2 receptor binding domain (RBD) (SARS-CoV-2) (UniProt P0DTC2)
substance,measurement,value
DH1047 antigen binding fragment (Fab),Kd,< 0.02 nM
